Results as given in patent US20120087916A1, “ANTI-ICAM-1 ANTIBODY, USES AND METHODS” (priority 2009, published 2012).
Entries after “also recorded” stand apart in the source; their conditions may differ.

Tests used:
[1] = Pharmacokinetics in the rat, single IV bolus injection; format: in vivo
Description: A pharmacokinetic (PK) study of BI-AB in the rat has been performed. In this study, the doses of the antibody tested were in such excess in relation to the target antigen concentration that any binding to the target antigen would not be of significant importance for the PK profile. This fact serves as the rationale for performing a PK study in a species where the antibody will not bind to the target antigen. The pharmacokinetics of BI-AB in the rat has been investigated following a single IV bolus injection at dose levels of 0.5, 2.5 and 10 mg/kg.

B-cell lymphoma = test: SCID/B-cell lymphoma tumour xenograft models; format: in vivo, SCID mice; conditions: prophylactic and established models; data not shown
ICAM-1 = ICAM-1 (Homo sapiens, UniProt P05362); test: Binding of BI-AB to ICAM-1
ICAM-1, sequence (P05362 28-532): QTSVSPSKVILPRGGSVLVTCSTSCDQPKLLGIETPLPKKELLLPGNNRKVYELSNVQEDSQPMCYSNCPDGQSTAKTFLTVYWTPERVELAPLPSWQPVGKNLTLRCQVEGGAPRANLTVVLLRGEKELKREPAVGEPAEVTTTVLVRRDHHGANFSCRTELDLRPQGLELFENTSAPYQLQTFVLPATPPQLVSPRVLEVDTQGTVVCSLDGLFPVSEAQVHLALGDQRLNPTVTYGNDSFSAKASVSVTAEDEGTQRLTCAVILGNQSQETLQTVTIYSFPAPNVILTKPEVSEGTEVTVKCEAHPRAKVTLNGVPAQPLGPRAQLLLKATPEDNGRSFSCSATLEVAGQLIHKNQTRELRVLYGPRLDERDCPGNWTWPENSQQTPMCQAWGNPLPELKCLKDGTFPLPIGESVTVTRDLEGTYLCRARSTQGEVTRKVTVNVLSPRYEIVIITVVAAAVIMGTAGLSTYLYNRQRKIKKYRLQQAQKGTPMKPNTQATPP
Description: BI-AB is a fully human immunoglobulin G subtype 1 (IgG1) monoclonal antibody expressed in Chinese Hamster Ovarian (CHO) cells. The BI-AB antibody has a theoretical molecular weight of approximately 144 kDa based on the predicted amino acid sequence. Mass spectrometry, peptide mapping and SDS-PAGE will determine molecular mass and primary and secondary structures. The biological activity is quantified using an ELISA assay, which quantitatively measures the binding of the BI-AB to ICAM-1.

OPM-2 myeloma cells = test: SCID xenograft of ICAM-1-negative myeloma cell line; format: in vivo, SCID mice; conditions: ICAM-1-negative OPM-2; 2 mg/kg twice-weekly intraperitoneal from Day 1
Experimental: (§1) Antibody treatment with 2 mg/kg BI-AB or control IgG1 was started at Day 1 and was continued on a twice-weekly intraperitoneal dosing regimen. Mice were sacrificed when tumour sizes reached the ethical limit. […] Statistical significance was calculated relative to control antibody treatment using Student t test. Statistical significance was considered for *p<0.05, **p <0.01, and ***p<0.001. ICAM-1-intercellular adhesion molecule 1; SCID=severe combined immunodeficiency

[2] = system: human multiple myeloma tumour cells; test: Disseminated tumour model (advanced experimental multiple myeloma), intravenous tumour cell inoculation; format: in vivo, SCID mice
Experimental: SCID mice were irradiated 5 days before intravenous tumour cell inoculation. Animals received intravenous injections with antibody at 2 mg/kg or bortezomib (Velcade) at 0.5 mg/kg on Days 7, 10, 14, and 17 (as indicated by arrows in graph). There were 8 mice per treatment group. Statistical significance was calculated using Log-rank Graphpad Prism software. Significance was determined at *p<0.05, **p<0.01, and ***p<0.001.
BI-AB anti-myeloma activity has additionally been investigated in a disseminated tumour model (a well-established experimental model of human multiple myeloma) at an independent contract research organization. […] After 190 days, when the experiment was terminated, 25% of BI-AB-treated mice were still alive.

[3] = system: NCI-H929, EJM, RPMI-8226 myeloma cells; test: SCID xenografts of CD20-negative ICAM-1-positive myeloma cell lines; format: in vivo, SCID mice; conditions: CD20-negative ICAM-1-positive lines, 2 mg/kg twice-weekly intraperitoneal from Day 1
Experimental: as §1

[4] = BI-AB serum trough levels by ELISA in the ARH-77/SCID tumour model; format: in vivo, SCID mice; conditions: corresponds to 0.004 mg/kg dose; from fitted five parameter log-log curve
Experimental: (§2) FIG. 5: Calculation of MABEL: determination of BI-AB IC10 value using in vivo pharmacology assay and in vitro correlation with binding. • (A) Tumour cells were injected subcutaneously into the left flank of SCID mice (n=8 per group). Mice received twice-weekly intraperitoneal injections with BI-AB at a range of 20 to 0.002 mg/kg (until control group had to be sacrificed). […] IC10=concentration at which there is 10% inhibition; ELISA=enzyme-linked immunosorbent assay; MABEL=minimum anticipated biological effect level. • (D) ARH-77myeloma cells were injected subcutaneously into the left flank of SCID mice (n=8 per group). Mice received twice-weekly intravenous injections of BI-AB at 0.002-20 mg/kg until control group had to be sacrificed. Blood samples were collected at termination and analyzed by ELISA to determine BI-AB serum trough levels. Trough BI-AB serum concentrations were plotted as a function of anti-tumor activity and fitted using five parameter log-log curve and XLfit software (IDBS, Guildford, United Kingdom).
Mean BI-AB serum trough concentrations of different mouse dose groups were determined by ELISA analysis of blood samples collected at different time-points during the course of in vivo experimentation. […]

[5] = Pharmacokinetics in the cynomolgus monkey, escalation dose toxicity study; format: in vivo, cynomolgus monkeys; conditions: 1-100 mg/kg
Description: • Table 1: BI-AB levels associated 10, 50, and 90% anti-tumour activity correlated with levels of receptor binding. • a—determined in the most sensitive setting in the ARH-77/SCID in vivo tumour model, i.e., early antibody administration. • b—determined in the advanced ARH-77/SCID in vivo tumour model (mice carrying established tumours) • Table 2: Single dose pharmacokinetics of BI-AB following single IV bolus injection • Table 3: Pharmacokinetics of BI-AB following single escalating IV bolus injection The pharmacokinetics of BI-AB was investigated at dose levels of 1, 2, 8, 20, 50, and 100 mg/kg in the escalation dose toxicity study in cynomolgus monkeys. Samples for plasma analysis were taken after all dose levels. […] Cmax were generally obtained at the first sampling time of 0.5 hours post-dose. However at 100 mg/kg the Cmax was reached 8 hours post-dose. Serum concentrations declined in a generally bi-phasic manner with an elimination time ranging from 69 to 264 hours. […] There was some carry-over of the compound between treatments due to the long half-life of BI-AB.
The pharmacokinetics of BI-AB was investigated at dose levels of 1, 2, 8, 20, 50, and 100 mg/kg in the escalation dose toxicity study in cynomolgus monkeys. Samples for plasma analysis were taken after all dose levels.
Cmax were generally obtained at the first sampling time of 0.5 hours post-dose. However at 100 mg/kg the Cmax was reached 8 hours post-dose. Serum concentrations declined in a generally bi-phasic manner with an elimination time ranging from 69 to 264 hours. […] There was some carry-over of the compound between treatments due to the long half-life of BI-AB.

[6] = molecular target: T1, ICAM-1 epitopes on ARH-77 myeloma cells (Homo sapiens, UniProt P05362); test: Receptor occupancy / binding in vitro using human tumour cells
T1 construct: endogenous in cells; host or cells: ARH-77 myeloma cells
T1 sequence (P05362 28-532): as above
Experimental: as §2
Receptor occupancy has been examined in vitro using human tumour cells and the BI-AB level corresponding to binding saturation has been identified. It is assumed that at this concentration, ICAM-1 epitopes on cells of the vascular compartment should be saturated, and any side effects related to the physiological function of ICAM-1 are expected to be […]. […]

ARH-77 myeloma cells = test: SCID/ARH-77 myeloma xenograft model (early and established subcutaneous tumours); format: in vivo, SCID mice
Experimental: There were 8 to 10 animals per treatment group. • A and B: Early tumour model; treatment started 1 day after myeloma cell inoculation and continued until tumour volumes reached the ethical limit. (A) Tumour volume as a function of antibody dose. (B) Kaplan-Meier survival graph as a function of antibody dose. • (C) Established xenograft model; treatment with antibodies started when tumours reached a volume of approximately 100 mm^3. […] Statistical significance was calculated relative to control antibody treatment using Student t test (tumour volume) or the log-rank test (mouse survival) using Graphpad Prism software. Statistical significance was considered for *p<0.05, **p<0.01, and ***p<0.001. Graphs illustrate representative experiments out of several performed.
Blood samples were collected at termination and analyzed by ELISA to determine BI-AB serum trough levels. Trough BI-AB serum concentrations were plotted as a function of anti-tumor activity and fitted using five parameter log-log curve and XLfit software (IDBS, Guildford, United Kingdom).

[7] = single IV bolus 0.5, 2.5 and 10 mg/kg

B1: BI-AB: fully human, high-affinity IgG1 mAb specific for ICAM-1 generated from the n-CoDeR human antibody fragment library (antibody, V domains shown)
VH: EVQLLESGGGLVQPGGSLRLSCAASGFTFSNAWMSWVRQAPGKGLEWVAFIWYDGSNKYYADSVKGRFTISRDNSKNTLYLQMNSLRAEDTAVYYCARYSGWYFDYWGQGTLVTVSS
VL: QSVLTQPPSASGTPGQRVTISCTGSSSNIGAGYDVHWYQQLPGTAPKLLIYDNNNRPSGVPDRFSGSKSGTSASLAISGLRSEDEADYYCQSYDSSLSAWLFGGGTKLTVLG
[1]; single IV bolus
  systemic exposure versus sex: generally independent of sex
[1]; [7]
  clearance and volumes of distribution (Vz and Vss) versus dose: dose independent
  systemic exposure versus dose: increased roughly in proportion to dose
  time of maximum serum concentrations: within the first hour
B-cell lymphoma
  anti-lymphoma activity: significant anti-lymphoma activity
ICAM-1
  affinity and specificity of binding to ICAM-1: binds with high affinity and specificity to ICAM-1
OPM-2 myeloma cells
  effect on tumour growth: no effect on tumour growth; also recorded: did not affect tumour growth
[2]; 2 mg/kg intravenous Days 7, 10, 14, 17 (or start 1 day) after tumour cell inoculation
  survival compared with control-treated mice: confers protection against advanced experimental multiple myeloma; also recorded: significantly prolonged survival
[2]; BI-AB 2 mg/kg vs bortezomib (Velcade) 0.5 mg/kg
  benchmark against Bortezomib: superior
[2]; after 190 days, when the experiment was terminated
  treated mice still alive: 25%
[3]
  anti-myeloma activity (tumour growth): significant and ICAM-1-dependent anti-myeloma activity
[4]
  steady state trough serum concentration at IC10 inhibition of tumour growth: 0.028 µg/mL
[5]
  systemic exposure versus dose: increased roughly in proportion to the dose
  systemic exposure versus gender: without gender deviations
  volumes of distribution versus dose: no dose-dependency
[6]; at 28 ng/mL BI-AB
  ARH-77 ICAM-1 epitopes occupied by antibody in vitro: approximately 30%
[6]; in vitro
  binding to ARH-77 myeloma cells: binds to ARH-77 myeloma cells in a dose-dependent manner
ARH-77 myeloma cells; SCID/ARH-77, prophylactic and established xenograft models, Rituximab e.g. 20 mg/kg
  efficacy and potency compared with Rituximab (reducing tumour growth, prolonging survival): more efficacious and potent compared with Rituximab; also recorded: comparable or improved activity
ARH-77 myeloma cells; SCID/ARH-77 xenograft, twice-weekly intraperitoneal, doses 0.016, 0.16, 1.6 (16) mg/kg
  in vivo anti-myeloma efficacy (tumour volume, survival): significant in vivo anti-myeloma efficacy and potency
ARH-77 myeloma cells; early antibody administration, twice-weekly dosing regimen
  MABEL/IC10 dose (10% inhibition of tumour growth): 4 µg/kg
